Source: publication PMC8113555

How the values were obtained:
[1] = target: TEBP-2-His5 (Caenorhabditis elegans) (UniProt Q22429); experiment: fluorescence polarization; details: FP: 20 mM HEPES pH 7.0, 100 mM NaCl, 5% glycerol, 20 nM probe, 10 min at RT; pull-down: 50 mM Tris/HCl pH 7.5, 150 mM NaCl, 0.5% NP-40, 5 mM MgCl2, 1 mM DTT …
[2] = target: TEBP-1-His5 (Caenorhabditis elegans) (UniProt O62329); experiment: fluorescence polarization; details: FP: 20 mM HEPES pH 7.0, 100 mM NaCl, 5% glycerol, 20 nM probe, 10 min at RT; pull-down: 50 mM Tris/HCl pH 7.5, 150 mM NaCl, 0.5% NP-40, 5 mM MgCl2, 1 mM DTT …

TEBP-2-His5 (Caenorhabditis elegans), sequence (Q22429 entry or part of it): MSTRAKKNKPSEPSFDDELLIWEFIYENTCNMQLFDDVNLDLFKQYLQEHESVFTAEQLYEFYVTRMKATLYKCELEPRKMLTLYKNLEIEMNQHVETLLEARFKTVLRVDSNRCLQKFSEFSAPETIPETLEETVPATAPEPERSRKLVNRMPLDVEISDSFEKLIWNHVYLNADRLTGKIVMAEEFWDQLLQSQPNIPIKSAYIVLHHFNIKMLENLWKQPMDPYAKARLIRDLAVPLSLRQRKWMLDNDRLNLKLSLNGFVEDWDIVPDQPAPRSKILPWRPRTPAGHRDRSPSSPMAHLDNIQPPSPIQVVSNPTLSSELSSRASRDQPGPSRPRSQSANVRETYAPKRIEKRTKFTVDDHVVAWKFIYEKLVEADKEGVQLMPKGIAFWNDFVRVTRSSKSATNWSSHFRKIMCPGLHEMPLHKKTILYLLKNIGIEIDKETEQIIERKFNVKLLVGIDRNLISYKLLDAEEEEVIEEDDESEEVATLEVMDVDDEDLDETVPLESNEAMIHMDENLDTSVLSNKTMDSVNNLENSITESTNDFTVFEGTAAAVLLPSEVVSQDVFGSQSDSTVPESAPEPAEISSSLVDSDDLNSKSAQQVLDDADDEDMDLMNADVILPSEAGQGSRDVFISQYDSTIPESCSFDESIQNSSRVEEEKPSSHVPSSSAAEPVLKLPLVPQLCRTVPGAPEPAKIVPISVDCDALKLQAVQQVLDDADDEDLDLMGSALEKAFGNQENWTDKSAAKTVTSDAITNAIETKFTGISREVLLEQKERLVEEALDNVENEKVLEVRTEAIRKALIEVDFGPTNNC

Sequence: CTGTTAGGCTTAGGCTTAG (double strand) [2.5x TTAGGC ds]
- Kd [1]: 37.8 nM
- Kd [2]: 129 nM
